Test results: US12006503B2, “Fusion proteins and methods thereof” (The Trustees of Columbia University in the City of New York, priority 2012, dated 2024)

Legend:
[1] = tested on: Rat1A cells; assay: Karyotype analysis (chromosome counts, aneuploidy) of Rat1A cells; assay type: cell-based, rat; details: Rat1A cells, 100 cells counted
Method: Distribution of chromosome counts of cells arrested in mitosis and analyzed for karyotypes using DAPI. Chromosomes were counted in 100 metaphase cells for each condition to determine the ploidy and the diversity of chromosome counts within the cell population. FGFR3-TACC3 fusion induces aneuploidy.
The upper panel is a karyotype analysis of Rat1A cells transduced with control or FGFR3-TACC3 lentivirus and treated with vehicle (DMSO) or PD173470 (100 nM) for five days.
Karyotype analysis. Cultured cells were colcemid (20 ng/ml) treated for 90 minutes before harvesting for karyotopic analysis as detailed in Extended Experimental procedures. At least one hundred cells in metaphase were examined for chromosome count. PMSCS was scored in cells where a majority of the sister chromosomes were no longer associated. Two-tailed unpaired t-tests with Welch's correction were performed for comparison of means analysis.
Karyotypic Analysis. The colcemid treated cells were trypsinized, centrifuged for 7 minutes at 200×g, and the cell pellet re-suspended in warmed hypotonic solution and incubated at 37° C. for 13 minutes. The swollen cells were then centrifuged and the pellet re-suspended in 8 ml of Carnoy's fixative (3:1 methanol:glacial acetic acid). The cell suspension was centrifuged and washed twice in Carnoy's fixative. After the last centrifugation, the cells were resuspended in 0.5 to 1 ml of freshly prepared fixative to produce an opalescent cell suspension. Drops of the final cell suspension were placed on clean slides and air-dried. Slides were stained with DAPI and metaphases were analyzed under a fluorescent microscope.

[2] = tested on: Rat1; assay: Soft agar colony assay, Rat1 cells; assay type: cell-based, rat; details: Rat1 cells transduced with the construct
Excerpt: FGFR1-TACC1 and FGFR3-TACC3 induce anchorage-independent growth in Rat1A fibroblasts. The number of soft agar colonies was scored from triplicate samples 14 days after plating. Representative microphotographs are shown.

[3] = tested on: Balb 3T3; assay: Soft agar colony assay, Balb 3T3 cells; assay type: cell-based; details: Balb 3T3 cells transduced with the construct
[4] = tested on: Ink4A;Arf-/- astrocytes in immunodeficient mice; assay: Subcutaneous tumor xenograft formation by lentivirus-transduced Ink4A;Arf-/- astrocytes; assay type: in vivo, mouse; details: Ink4Arf-/- astrocytes expressing the construct
Excerpt: FIG. 3B are photomicrographs showing of immunofluoresence staining of tumors from mice injected with Ink4A; Arf−/− astrocytes expressing FGFR3-TACC3 showing positivity for glioma-specific (Nestin, Oig2 and GFAP) and proliferation markers (Ki67 and pHH3). Sub-cutaneous tumors were generated by Ink4A; Arf−/− astrocytes expressing FGFR-TACC fusions.
Subcutaneous xenografts and drug treatment. […] For experiments with FGFR inhibitors, mice carrying ˜200-300 mm 3 subcutaneous tumors derived from Ink4A; Arf−/− astrocytes were randomized to receive 50 mg/kg PD173074 in 0.05 M lactate buffer (pH 5) or an equal volume of lactate buffer by oral gavage. Treatment was administered for three cycles consisting of four consecutive days followed by two days of rest. […] Data are expressed as mean±SE.

[5] = tested on: Rat1; assay: Subcutaneous tumor xenografts formed by transduced Rat1 cells; assay type: in vivo, rat; details: Rat1 cells expressing the construct

B1: FGFR3: wild type FGFR3 expressed by lentivirus (protein, listed as Homo sapiens)
chain: MGAPACALALCVAVAIVAGASSESLGTEQRVVGRAAEVPGPEPGQQEQLVFGSGDAVELSCPPPGGGPMGPTVWVKDGTGLVPSERVLVGPQRLQVLNASHEDSGAYSCRQRLTQRVLCHFSVRVTDAPSSGDDEDGEDEAEDTGVDTGAPYWTRPERMDKKLLAVPAANTVRFRCPAAGNPTPSISWLKNGREFRGEHRIGGIKLRHQQWSLVMESVVPSDRGNYTCVVENKFGSIRQTYTLDVLERSPHRPILQAGLPANQTAVLGSDVEFHCKVYSDAQPHIQWLKHVEVNGSKVGPDGTPYVTVLKTAGANTTDKELEVLSLHNVTFEDAGEYTCLAGNSIGFSHHSAWLVVLPAEEELVEADEAGSVYAGILSYGVGFFLFILVVAAVTLCRLRSPPKKGLGSPTVHKISRFPLKRQVSLESNASMSSNTPLVRIARLSSGEGPTLANVSELELPADPKWELSRARLTLGKPLGEGCFGQVVMAEAIGIDKDRAAKPVTVAVKMLKDDATDKDLSDLVSEMEMMKMIGKHKNIINLLGACTQGGPLYVLVEYAAKGNLREFLRARRPPGLDYSFDTCKPPEEQLTFKDLVSCAYQVARGMEYLASQKCIHRDLAARNVLVTEDNVMKIADFGLARDVHNLDYYKKTTNGRLPVKWMAPEALFDRVYTHQSDVWSFGVLLWEIFTLGGSPYPGIPVEELFKLLKEGHRMDKPANCTHDLYMIMRECWHAAPSQRPTFKQLVEDLDRVLTVTSTDEYLDLSAPFEQYSPGGQDTPSSSSSGDDSVFAHDLLPPAPPSSGGSRT
For B1, the “Average variation from mean number” value [1] was 1.3, the “Mean number (chromosomal number)” value [1] was 42.1 and the Percent aneuploidy [1] was 33%. For the same molecule, the “Range (chromosomal number)” value [1] was 35-44, the soft agar colonies [2] was 0 and the soft agar colonies [3] was 0. For the same molecule, the “Subcutaneous tumor xenografts (tumors formed/injections)” value [4] was 0/5 and the “Subcutaneous tumor xenografts (tumors formed/injections)” value [5] was 0/5.
